PMC5310649 (Biochemistry, 2016)

Biological target: the molecule itself
Test: thin section electron microscopy

B1: FtsZ-mVenus (FtsZ with the YFP variant mVenus fused to the C terminus) (natural protein, E. coli, UniProt P0A9A6 1-383, looked up)
chain: MFEPMELTNDAVIKVIGVGGGGGNAVEHMVRERIEGVEFFAVNTDAQALRKTAVGQTIQIGSGITKGLGAGANPEVGRNAADEDRDALRAALEGADMVFIAAGMGGGTGTGAAPVVAEVAKDLGILTVAVVTKPFNFEGKKRMAFAEQGITELSKHVDSLITIPNDKLLKVLGRGISLLDAFGAANDVLKGAVQGIAELITRPGLMNVDFADVRTVMSEMGYAMMGSGVASGEDRAEEAAEMAISSPLLEDIDLSGARGVLVNITAGFDLRLDEFETVGNTIRAFASDNATVVIGTSLDPDMNDELRVTVVATGIGMDKRPEITLVTNKQVQQPVMDRYQQHGMAPLTQEQKPVAKVVNDNAPQTAKEPDYLDIPAFLRKQAD
binding result: binds
